Results as given in a protein production outcome set (Wang et al. 2014).

Experiment: label from the status in PepcDB records

| Sequence | protein production |
| --- | --- |
| MSALRILARFVSTRTLRIRPILEIPARCKYTQHQGVKGIRNRKSFFEAQIQAGQQGEEDADLERTANSDLADMRFLDDRAYDEVAGGAMRITRDIASSQQVLILQPYVKWAAKRQNAPVDVRPEDQLAEATALIHSLPNWQVARALKVPLESLEKKTLFGSGKLVELKELVAELRQERHLTCLFVSKGTLSFAQKRFLEAEFRLPVMDRYSVVIQILRLHATSAEAKLQVAMAELPYIWAQAKDASVTQTRRQGYALTDLQKEILRTRERKLRAELDRVRRQRQLLRQKRKQQNYPIVAVVGYTNAGKTSLIKALTVEDALQPRNQLFATLDVTAHAGCLPCNLEVIYMDTVGFMSDLPTGLFECFVATLEDAMLADVIVHVQDLSHPCHAAQRSHVEATLRSLAFNVAGGDSTASQLPPIINVYNKCDLVSQEAQSSADPVHHISARAQTGLEPLLDDIEQQILTATGRRKLQMRVPSGGPEMAWLYKNAAVVETTADAENPERLMMHVVISQRTLDQFKRQFCR | failed |
| AIAASGKRKGLSFDDKKTRLLELFNETCDFYTLKELEKIAPKLKGIITQSVKDVLQSLVDDDLVNSDKCGVQTIYWCLPSEAVAKRQRRLDALQQQLAEKRQKLTALQRQLVQVQAGREDSVERTAVLERLAACEAAWRERQRTLESYLECDPDVLAQRETETKTLIEQANRWTDNLYVIRSYVQRNLGVDLDLFDQQFELKPALQYLE | failed |
| MGKGVAFFSGGKDGLYALYLAEEMGIEVPYLLVLKTSIGLSPHWENLDALKTLAKVMEREILTFDMRRGSKALAEFISSLDVDYLIAGDVYLEDHILWVKSLAEEANVKPLEPLWGRNTRKLAEEMLREGFNWAIIAVDKRKLGKEWLGYTFRSIEDLENFLRANPNVDPLGEVGEFHTVVLNSPLFALNFELKVESIEEDERYWWLRFELREVEKWNLNS | failed |
| MDPCTGGNGCVHICQSENGTARCACHAGYQLPEDKNICEDINECAEGLSYCGHCCVNSMGSFTCACQTGFELGADRKQCYSNWQQSQPRLYLSLSDFFLLFPVHDYTLPGIELEIVNSCEKNNSVCSHHREHEIGAPRCSCNHGHQLDSDEKTCIDLDECENGEACCAQLCINYLGGYKCRCQEGFQITSNGCECDALDDDELEEEEEE | failed |
| MQKRAYLLIAVSGSLWGTIGIFVRELYGLGFSTLQIVTMRVFSAAVIMLLYLLFTKPELLKIRFRDSLYFVGTGILSIVFFNLCYFITIRETSIAIAVTLLYTAPAFVAILSRIIFRESLDAKKLFSLGLTLTGCAFVTGYLPELGNSPSITLPWLLTGLGAGFGYALYSIFGKVALKKYDTVTITAYTFFFASLALLPLVSFETSGEAFSTGSFWTYLIGLGFFPTVLAYLLYTKGLEEVESSRAAIVATVEPVVATFAGFFFFREIVSGWQLAGILFVLAGVVLIQERK | failed |
| MTIPLIIGGVLLAILILLILVFITKYRTVGPDEALIVTGNWLGGGKNVVTTDDGKKIKIIRGGGTFVVPIMQRAEPLSLLNYKLEVGTRDTYTKQGVPVTVNGVSIIKVGSTIEEVSTAAEQYLGKETEELKVEAKEVLEGHLRAILSSMTVEDAYSNREQFAQKVHEVASTDLKKMGLRIVSFTIKEIMDKNGYLDALGQPQIATVKRDATIANAEREKEARIEKARAEKEAKEAEYQRDAQIAEAEKHKELKVQSYKREQEQARADADLSYELQQAKAQQGVTEEQMRVKIIEREKQIELEEKEIARREKQYDAEVKKKADADRYAVEQSAEAEKVKQIKKADADQYKIEAEARARAEEVRVEGLAKAEIEKAQGQAKAEVQKAQGTAEADVIRLKGLAEAEAKQKIAEAFELYGQAAIMDMVLKMLPSYAKEVASPLSNIDKITVVDTGGGGKNSGAGKVAGYATDLMATMQETLKASSGIDLKELLEGFAGKGAVQQLSSDKPVVSVVEDEKKEVEKDKELEHHHHHH | failed |
| MSDWNIDQAEELYGVNRWGAGYFSIGENGNIQIRPNHRLPDVTIDMKEVVDEIISEGIQFPAVIRFHDILRSQVEIINETFGKQIEEANYQGQYCGVFPIKVNQMREVVEEIMDAGEPYNYGLEAGSKPELMAVMAYNDNPEALTILNGYKDKDYLTLALLGRQLKRKMIIVIEKFSELEMLIPLAKQMGVKPMIGLRSKMMVKSSGKWAGSSGDRAKFGLSIAEILNVIERLREEDMLHCAKLLHFHIGSQLSDIRKIKEAVNEGARLYAKLVLEGMPLEYLDIGGGLGIDYDGTSTTNDSSRNYSTEEYVADVVWGVKQICDLEKVPHPNLVSESGRAMTAHHSCVVTNIVGEMKPAGTQYDISASSDEHILVKNMRELHSSGDQFHPQERYNDAAGYKQNAYEAFKLGILSLNEMAKLDTMYWQILADIHHSLDKDTYVMQELEELEDMLASQYLCNFSVFQSAADTWAIGQVLPVVPISRLNEQPEVRCSIVDITCDSDGKLSKYIEGTDISDHIPMHNLRKGEDYHVGLFLTGAYQDVMGDMHNLFGRLTEVHVYCHDDEPGDFYIEEVVPGTSAEKVLQTMQYNTEYMAKTVKKQIDRQVRKGSLAPREGVRWTNFYEHCLAGSTYLRVE | failed |
| MASEAVNVWSRTSLILIMLSAAILVVAVGAVMNSGLVESLQVPLWEKWVILVFLFALIIGIIGPLSGVGGGVIFVGLGMAILPFNVDFIRGAGLVAALSTSLNSAPYFTKKGLANLRIVAPLVSVSTIFSVFGGVIGLWISNSFPEGSYYVKMSLGVVLLVLLLILSRSKNVEYPPPREKKDRLSEMIDLTGGWYEPTLNRIVTYEASNLPLAMLAFSGVGFLAGMFGLGAGWANVPILNLVMGLPLKAAVASSMLILAINDSASLWVYLANGAVLPIVVVPVVLGISIGSRIGSRLAAKTKPKVIKRLVIALIALSGVVNIIQGLSGIGLLNL | failed |
| MSLQESSLVLSNGLGFVDTPYKAGTLEVDDTEDLIINCDEVDCTTFVEYALAMALCPQQGDEMQEGDFARNLQRIRYRDGKIDGYTSRLHYISDWINNAVRQGLLEDVTAAYSPFKQKLSLSYMSTHPELYKSLKNSPENVAQMAKYEKALSGKEVHYLPKDKLEPDGLPWIKNGDIIALTTNTPGLDVSHMGIAIYIKGQLHLLHASSKEGKVVVGKTALSQMLKDRKSLTGIRVLRMKKEGHHHHHH | not failed |
| MAGSSTSSSEACTDPYLRCAFNGAALTALGISHSALLAHSPQGCEYLVNNAFASQECDYMETMTLCTKLCVDEIVHGGEDILARTIREVKDLPISALFVLSACGPEIVGDDIVGVCEALQPEVKFRLVPIESAGFRGSQYDGIDIAMDTILKKLVKDDVEKIPGSVCLVAPHANANPTWPADLAWVKQVLFRMGIKVVATLTHRTPIAEIENIASAETSLLLSHDAGQKAADYLSATFGIEQVCKGIPLPIGMTNTQRWLTALGDRFDILKTAEEIVAEGERMVMATCRRKWPMARFMYRTPAAIVADATVGIPLVRFVTEEMEMTPELVALYTSHRSVWELLEGELKSLGLNPKVVYGTDVYKTRKSLQEVRPRVVFGSTIERHASEGLPVAYVVEVVRMMRQFRMINREYFGYTGILNLLECVQNEWVMGWRSKERRYEAKW | failed |
| MTKKVMIKGDIVDDQTAGFYQFFGMPAVSPSGVADILNDDSGDDDDDGDDEALEVDIASNGGDVFAASEIYTMLKNYAGNVTVNIQGLAASAASVIAMAGDHINISPTAQIMIHKAWSQPAGNADDLEHEASVLNGIDQSIASAYEAKTGMDQADLLQLMANETWLTASDAVDKGFADEIMFANDQQLQPVNAISHIPPKSAVNKLMNLIYKADKDKAKPSKKENTTNGQSAELRNSKLAILFEKNQKEAN | failed |
| MVSYPVWDSAMFAYTISSHILLVTLTLGLALLITISEFIGIKYKNRYFLTLARKASTALVINFAVGTASGIFMAVELYLFWPEFMKVVGAVAMSAFYAEVFAFLLESITLMMYVYFWDNFKNRWNHWLTSIGVLVGTGGSAALITDVNAWMNTPEGSFNIPYYLKTGIITDVNPWKVFWEPSTFAEQFHMYAVEYFAGSMMLLGYFAYKYLRSSGADERLVYSAGLKILSVIAIIDIIIVGASGSNELDTLLVVEPLKYAALEQDMVPVTYGAPEHIFGIIINGHPAYYVNLPLAQSLLAYPFTFGHGYIPGLSSYPSSVWPPSFVHDTLDLMVGFGLLMGFFWLIVVIMYFMKKDPLNKRSVLKALMFFSGMAVYTMEDGWYTAEVGRVPGIILYDKPPYYVMTIGQAASTSPVVFPLGMAIIIFYIVLIPLTLYFMAKVLKVSNIEDDLRHADDDLSKVGKSTPAGMR | failed |
| MTNIQALFERIAPLYDRLNDQLSFGLHHVWKQMAVDWLELPQGATALDLCCGTGDLTRLLARRVGRQGRVVGLDFAAAPLAIARQRSDHYPQIEWLQGDALAVPFAPQTFQGITIGYGLRNVVDIPQALREMFRLLVPGGRAAILDFSHPQTSALEQFQQWYLQQWVVPTARHYGLAAEYDYLWPSIQAFPTPPTLCALIQQAGFERVKHYPLLGGLMAITVAQKLEHHHHHH | failed |
| MTNVLYQHGTLGTLMAGLLEGTATINELLEHGNLGIATLTGSDGEVIFLDGKAYHANEHKEFIELKGDEKVPYASITNFKASKTFPLQQLSQDDVFAQIKNEMLSENLFSAVKIYGTFKHMHVRMMPAQQPPYTRLIDSARRQPEEKRQDIRGAIVGFFTPELFHGVGSAGFHIHFADDERAYGGHVLDFEVDDVVVEIQNFETFQQHFPVNNETFVKAKIDYKDVAEEIREAE | not failed |
| MSEDAWKVNLIGNDEVHDLYTIVGNAAKQSMARDTDPMVSTILAYEGDWRKVFKRNTMTTFYGSKGFGMAQQHMDDLMEPLSREVMQKKRAKHPFGQTRKEHHAASRLLAAHAAAAIKGEIPLAIKAMEFIQKLSAMMAHEGKPLEWTTPIGLPWSNRYHDPVTERVNLWMHDHGVRRPFRPVVADGYKKTINKNHSVNGSAPNFVHALEHHHHHH | failed |
| MDANEFHWLMDMLESVEVGLVVLDLDFHVQAWNGFMEHHSGITARQIRDKVLFEVFPDIPEAWLTRKVDAVAMLNTRAFTSWEQRPYLFKFRNTRPITGTEEYMFQNLTISPITAPNGEVEKVCLLVYDVTEFASSKRALERANEQLAKLSMTDRLTGLLNRGTWENLVDAEYERFRRYGQATSLVMFDIDHFKPVNDTYGHLAGDEVIRHTADVTRNNIRQSDSAGRYGGEEFGIILPETDAESARVICERIREAIEKSTVSTSAGDIQYTVSMGIAQLTETPENYMQWMQKADEALYKAKESGRNKVVVSLEHHHHHH | failed |
| MSRPPVFPPPQFPPPRPRPFQRTPPAIFPPILGLLALGLGLRRAAEIWGLPAGLAEAVLGATTGLGAFAVAAYAAKVAQRPGVVIEDLRVLPGRAGLAALVLGLLVLAAVLVPYGPAAARAVLVAGLGLQTILAVTVAALLLSGPKEGRVVTPAFHLHFVGFIIGGLTAAPVGWPGLGTVLLAVCAPVAAAIWIASLVQFLRRVPPPPLRPLLAIHLAPAALLGLVAGQQELPLVAQLCAAAGGVLLLAFLASARWLLAGGFSPLWGALTFPLAAYAGLLLVVWPQAGAVLLAAAALVIPPIAAKILQEWAKGRLAVRTNAAQA | failed |
| MTDTSTADVDLVGEEMALNVARTALFAALMGAFAYVSFPYPLSPAPVTLQVLGVFLAGLLLGPLWGGAAMVVYLLAGVLGAPVFSAGEAGIGVILGPQGGYLLSYPFAAAIVGGIVHRGTDIKPLETVSAALMIAAMILSTVVIYAFGIPFMWWNLEMTLLNAVIAGGVVFIPAEAAKMAAAIGIVRSDAIRAE | failed |
| MLMQYRDLAKNIIKIYQKHGRDWTQLRGDFLHEKIWLDRFLGLLPMSAKVLDLGCGSGTPIAKYLIEQGCQLTGVDTSEVMLDMAQQNFPEQIWINADIRQFSTEQTFDGILAWDSFFHLDPENQRQMFAQFSTHAASGGVLMFTSGPSYGEAIGDMFGGPLYHASLDAAEYRTLLAQYGFETIKMIAEDPECTGHTVWLARKK | failed |
| MEDQGVLAGFFALSFAFILVILIWAIISYLLTAFALYSMAKNDGATDGVLAFIPFLNSKTWGDLAKDKLPDFLKEEAGWKVFGIYVACFIFNFVPIISLLATAVSIVLSIYLIYAILDRYGTNSILFTIIHVITFSVFLPIHLFIIRNEPVRYKE | failed |
